Test results as given in patent US20220305135A1 (UNIVERSITY OF CHICAGO, published 2022).

Experiments:
[1] = target: T1, extra domain A (EDA) of fibronectin; experiment: ELISA on plates coated with 10 µg/mL EDA, detection with HRP anti-human IgG, absorbance at 450 nm [panel C]
T1 chain: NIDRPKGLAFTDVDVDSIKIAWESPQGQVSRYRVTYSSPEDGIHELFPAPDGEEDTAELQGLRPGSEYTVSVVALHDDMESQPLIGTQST

[2] = target: T1, extra domain A (EDA) of fibronectin; experiment: ELISA, EDA coated on plate, Fab titrated, anti-human IgG-HRP detection; apparent Kd by one-site nonlinear regression

- EC50 (read off the curve) [1]: ~80 nM
- Kd [2]: 50.9 nM
B1: Human anti-EDA Fab (Fab, V domains shown)
VH: EVQLLESGGGLVQPGGSLRLSCAASGFTFSVMKMSWVRQAPGKGLEWVSAISGSGGSTYYADSVKGRFTISRDNSKNTLYLQMNSLRAEDTAVYYCAKSTHLYLFDYWGQGTLVTVSS
VL: EIVLTQSPGTLSLSPGERATLSCRASQSVSNAFLAWYQQKPGQAPRLLIYGASSRATGIPDRFSGSGSGTDFTLTISRLEPEDFAVYYCQQMRGRPPTFGQGTKVEIKR
notes: Made recombinantly in HEK-293F cells
